Data published in the DeepSol protein solubility set.

assay: soluble on expression in E. coli; label from the status in PepcDB or PDB records

Row | Sequence | soluble on expression in E. coli
1 | MSLYYKVAVSGSGKVLNVFSSEELLIGERVWLNWRNGKVKGYVLERSLSHENEATPSERDGKSFLSEGHVEIAKWVSERFFSPLGMVFDLFFPQGIDDYKEEVVVSESPFLDFDRMTLRDFLENFGEKALKEMVKKGLVRVEKNFYVKEPRPRVKKRLFLKKRISEIIREHLTVKQRMVVEYLQFNDGVPLEELLEDLEVSKSVIETLQRKNIVEIVSGDVFPKKRRILRGDFKGNISKENLFFGPTGSGKTEALFELIDVYSRKGTVLFLVPEVSVLTHTLSRLKGAFPDLKIGIYHSYLSRARKNLEWYKAASGKIDVLLGTRSAVFVPVKNLSLLIVDEEHDESFYQHTRPSYDAIVVARKISEVFDVPIILSSATPDLWTYREAKEGRIRTFNFTRRFGSLSVEVVDMRNEEKIGSFAKKTLDRIEETLEEGKRVLIYVRRKGFWGRVQCEVCGYVLKCENCDVSLVYHSDTHSLKCHQCGREYGLVESCPRCGGRLVGRTAGTERVERELKRYFPTRRIARVDREVVDNIMELESYIDKLIRGEIDILVGTRLITKSLSVPEIGLVCIMDVDSLIFNPDYSSSLRTFQLVVQALGRASRGDQGKAIIQTYNPEDTIIRKALEEDVNGFYAEELERRKALGYPPYRHLIQVAVKSKNPEVGKNSLTSLKEFLKGEEVLGPVEHWVFKLRGFYRHHLIVKTEDLERVLPKLEKALRILGIDAIVRVDPPTLEVSDEGHHHHHH | not soluble
2 | MAKNIPFKLILEKAKDYQADMTRFLRDMVAIPSESCDEKRVVHRIKEEMEKVGFDKVEIDPMGNVLGYIGHGPRLVAMDAHIDTVGIGNIKNWDFDPYEGMETDELIGGRGTSDQEGGMASMVYAGKIIKDLGLEDEYTLLVTGTVQEEDCDGLCWQYIIEQSGIRPEFVVSTEPTDCQVYRGQRGRMEIRIDVQGVSCHGSAPERGDNAIFKMGPILGELQELSQRLGYDEFLGKGTLTVSEIFFTSPSRCAVADSCAVSIDRRLTWGETWEGALDEIRALPAVQKANAVVSMYNYDRPSWTGLVYPTECYFPTWKVEEDHFTVKALVNAYEGLFGKAPVVDKWTFSTNGVSIMGRHGIPVIGFGPGKEPEAHAPNEKTWKSHLVTCAAMYAAIPLSWLATE | soluble
3 | IGYWHYDADTDTATWSKGLFKILGLPPSNVALNYSSFLDLVHPNDKAGLKNVVEKALKEKEDYDYELRVRNGDNDYKWYRTIARANPHK | not soluble
4 | TQNPIANPLAAKKRRDHVLERLLEEHYINEEQYQNAVNQPITAKYHGTNIKVKAPYVAEMIRQSLYDNFGPEAYTKGY | not soluble
5 | MSLANYIKDIREKVGHMPLIMVGVGAAYIKEEKVLLQERADTGGWGLPGGYMEYGESIEQTLKREFKEDAGLEIIDYKFLKNFDREFFKYPNGDQTQVLTPFYLVTKVKEGKPQFDPHETSRVDFFDFNDLPEIHFASHKRILTYLQDILEGHHHHHH | not soluble
6 | LLRGLLASIEHGINRVLRLDSTALPRLARLSGHVIAVDCRDPSLKIFILPSDEGLLLAADWAADADCTLRAPASSLLRLALSKDKTAVLHGPDVELEGDSGVLLELTGILQDLELDWEHELSNWVGPVASQLFSSRVRSSGRWTRESFTSLSQNVADYLSEESRTLVGNHEAEARFAELDRIKLDLDRLEARFARLAHFLNT | not soluble
7 | MKVNKALTIAGSDSGGGAGIQADLKTFQELGVYGMTAITAITAQNTLGVQGVYPVSLEGITEQLNSIGTDLTPDAVKIGMLFSSEIIQIVAEYINKFGWNNIVLDPVMIAKGGASLLQQEAVQALKEYLLPVATVITPNVPEAEVLTGLEIHNIEDSKEAAKVLHELGAKYVLMKGGHAEYQGNEVIDLLFDGEKFIEFRSERIPSKQTHGSGCTFASAVTAGLAKGYSMEEAVQEAKRFISIAIEEPLHIGSGHGPTNHFAYKMNKAQV | not soluble
8 | FFALDYKRTEYVQYEDDEYYYYVKAVPKLNVASEDVRIKHINAKKTKKTSDIRDMKKTSSHRAESGYQAASAEEDDDILFYDNDDK | not soluble
9 | SAAPSEVAAIAPGEGDGGGGGFGSWLDGRLEALGVDRAVYGAYILGILQEEEEEEKLDALQGILSAFLEEDSLLNICKEIVERWSETQNVVTKVKKEDEVQAIATLIEKQAQIVVKPRMVSEEEKQRKAALLAQYADVTDEEESLTEADEKDDSGATTMNIGSDKLLFRNTNVEDVLNARKLERDSLRDESQRKKEQDKLQRERDKLAKQERKEKEKKRTQRGERKR | soluble
10 | MFSGKTSRLIELMERHILAGRKVTLFKPEIDSRYSENEVVTHKGIKLPAVIAPTDERFGEFLAARTRDSNVLGFDEAQFWKPSSRLPQHLEDLANSGRTVYVAALNRDHFGNPFRMTVDILAISDEIYTLSAVCSRCGSDAIFTQRIINGSPAFGEIIRIGGKDLYEPRCRNCFVWPSAQKRITDL | soluble
11 | RSEYVAPRSVWEARLAQVWEQVLNVPQVGALDDFFALGGHSLRAMRVLSSMHNEYQVDIPLRILFEKPTIQELAAFIEETAKGNVFSIEPVQKQAYYPVSSAQKRMYILDQFEGVGISYNMPSTMLIEGKLERTRVEAAFQRLIARHESLRTSFAVVNGEPVQNIHEDVPFALAYSEVTEEEARELVSSLVQPFDLEVAPLIRVSLLKIGEDRYVLFTDMHHSISDGVSSGILLAEWVQLYQGDVLPELRIQYKDFAVWQQEFSQSAAFHKQEAYWLQTFADDIPVLNLPTDFTRPSTQSFAGDQCTIGAGKALTEGLHQLAQATGTTLYMVLLAAYNVLLAKYAGQEDIIVGTPITGRSHADLEPIVGMFVNTLAMRNKPQREKTFSEFLQEVKQNALDAYGHQDYPFEELVEKLAIARDLSRNPLFDTVFTFQNSTEEVMTLPECTLAPFMTDETGQHAKFDLTFSATEEREEMTIGVEYSTSLFTRETMERFSRHFLTIAASIVQNPHIRLGEIDML | soluble
12 | MSNWTTYPQKNLTQAEQLAQLIKEADALVVGIGAGMSAADGFTYIGSRFETAFPDFIAKYQFLDMLQASLFDFEDWQEYWAFQSRFVALNYLDQPVGQSYLDLKEILGTKDYHIITTNADNAFWVAGYDPHNIFHIQGEYGLWQCSQHCHQQTYKDDTVIRQMIAEQKNMKVPGQLIPHCPECEAPFEINKRNEEKGMVEDADFHAQKARYEAFLSEHKEGKVLYLEIGVGHTTPQFIKHPFWKRVSENPNALFVTLNHKHYRIPLSIRRQSLELTEHIAQLISATKTIYQKS | not soluble
13 | MSLGFIEEIKSALGNYVITEKKDLIPYMNDASYFTGEMPEAVVLPGSAEDVQTIMRLAYKYEKPVVVKGGGSSLTGSSILKESGIVMSMLRMNRILDINLNDKCVTVEPGLRLNDLQLYLDKYGHFYPPDPASSMAATVGGSISTNAGGLRGVAYGVTKDWILGLDVVLADGTMVKFGNKTLKRTLGYDLTSLMIGSEGTLGVITKAYLKIWPKPQKVARLVAFYQDIESAGRAVNELKVSTIPEMAEFLDKISLDSVPEAITYPPGTKYALIIDVSGPPELLGKKKTETEELLKRYAISTKSTTDPAEMEKIYRARKGLYASILKLRKSEKEYIVIGDIVVPVSELPTSLKEIEKKRDEDGVRAAIFGHIGDGNIHANIFADLGDNSAMDKVNRFMMDLAMVAVKHGGSVSAEHGIGIEKKQLLIEEMKYNNNLRTLDIMKAIKQVFDPKNILNRGNIFEEGHHHHHH | soluble
14 | MENKRTLVVALGGNALLKRGEPLEADIQRKNIELAARTIAQLTRQWRVVLVHGNGPQVGLLALQNSAYANVTPYPLDILGAESQGMIGYMLQQALKNHLPEREISVLLTQVEVDANDPAFLNPTKYIGPIYDEAQARALQAEKGWVFKADGNAFRRVVPSPQPKRIVENDAIRALISRDHLVICNGGGGVPVVEKADGYHGIEAVIDKDLSAALLASQIHADALLILTDADAVYLDWGKPTQRPLAQVTPELLREMQFDAGSMGPKVTACAEFVSHCRGIAGIGSLADGQAILAGEKGTLIRCETADVDA | not soluble
15 | MQDDPRYRVEVEVSPRFLAHQSTPEEGRYAFAYSIRIQNAGAVPARLIARHWKITDANGRTEQVDGEGVVGEQPRLRPGEAFHYTSGVLLETEQGQMQGYYDMVADDGTEFTAPIAAFVLSVPRTLHLEHHHHHH | soluble
16 | MKLDAKSTIETGKAILGIELGSTRIKAVLIDQENKPIAQGSHTWENQLVNGLWTYSIDAIWSGLQDCYADLRSNVKKLYDTEIETLAAIGVSAMMHGYMPFNEKEEILVPFRTWRNTNTGRAAAELSELFVYNIPLRWSISHLYQAILDNEAHVKDIKFLTTLAGYVHWQITGEKVLGIGDASGMLPIDPTTNNYSAEMVAKFNNLIASKEYSWKLEDILPKVLSAGENAGVLTPEGCKKLDASGHLKAGIPVCPPEGDAGTGMVATNAVKQRTGNVSAGTSSFSMIVLEKELSKPYEMIDMVTTPDGSLVAMVHCNNCTSDLNAWVNLFKEYQELLGIPVDMDELYGKLYNIALTGDTDCGGLLSYNYISGEPVTGLAEGRPLFVRSANDKFNLANFMRAHLYASVGVLKIGNDILFNEEKIKVDRITGHGGLFRTKGVGQRVLAAAINSPISVMETAGEGGAWGIALLGSYLVNNKKGQSLADFLDESVFVSDAGVEVSPTPEDVAGFNTYIESYKAGLPIEEAAVKFKLEHHHHHH | soluble
17 | KNRIGTKALNFTYTLASGAQGSLYQLKAEYLLLFINNPGCQACTETIEGLKNAPIINQLLQEKKLVLLSIYPDEELDEWKKHLSEFPNEWINGYDKKFTIKEEQVYDLKAIPTLYLLDKDKTVLLKDATAPAIEAYLMQHQ | not soluble
18 | MGSDKIHHHHHHMADMTDQLPEVRKSHPYVMYEMMKDIPNGIDRTLSSMQNADLSFIGDDLIFLGNGTAYHSAYVGSQILDRVSKRHAVVQAYEYLNYMQSNAATIAISHTGKTKSTVDAVIKARKTAKTAGITHYADSPLYNSVDYPIAIADEDKSLCNTKAFFNNAFASLYIADYYGNLSYDMKNLRSEIAKHVGKDDPEMRSAAEELDQIDDIFVLGSGFNFPVAREAAQKIKEATHIHAEGIEFEEFNHGCTAVMDENTLVILIEGEKDRARGDQIARASRYVGSKTLAINGVGDISVYNDPQDDLSAAFLNTLDLYYLAYYLAVRRNINPDMLRFEDRRYRDYDSVVFPPGEH | not soluble
19 | MKSLPYTIALLFCGLIIVSMAAKGHSTDTDESVQKWEQLAWSKIQDEYKGASFSDYAYMGRTEVNDQQTKDVFRVTVRQKDDTFSVRAEVYFHPVTNHMISINVFRLMAGDPLEHHHHHH | soluble
20 | MAYCNPGLESRPNKRNALRRHVVTGIGMKIVIAPDSYKESLSASEVAQAIEKGFREIFPDAQYVSIPVADGGEGTVEAMIAATQGSERHAWVTGPLGEKVNASWGISGDGKTAFIEMAAASGLELVPAEKRDPLVTTSRGTGELILQALESGATNIIIGIGGSATNDGGAGMVQALGAKLCDANGNEIGFGGGSLNTLNDIDISGLDPRLKDCVIRVACDVTNPLVGDNGASRIFGPQKGASEAMIVELDNNLSHYADVIKKALHVDVKDVPGAGAAGGMGAALMAFLGAELKSGIEIVTTALNLEEHIHDCTLVITGEGRIDSQSIHGKVPIGVANVAKKYHKPVIGIAGSLTDDVGVVHQHGIDAVFSVLTSIGTLDEAFRGAYDNICRASRNIAATLAIGMRNTG | not soluble
21 | MELHIWPSDFGLPTIDVVSLQFLACSKMCASPVRVIQSTRPWRSPSGELPMVAQTEGEAKPVTDFEKFVDILKKCGQDVVIDADLTTIEKAQLDAFSCYLHHNLYPAVMHTFWTDELNYNTVTQYWYASHLHFPYNLYYLEKRRKKALRLLAGKNDTEILKEAFMALNTLSTKLGDNKFFCGNKPTSLDALVFGYLAPLLRVPLPNDRLQVQLSACPNLVRFVETVSSIYLPLGEDELKRQQANRKMWQSRISKAKADKEAAKTTEEASESLPEEPPMRDAILFTLGALTLSLVFAIHTGLIQVSVEEEISE | not soluble
